The values that follow come from patent US8158577B2, “Modulation of cartilage homeostasis by active domains of cell binding extracellular matrix molecules” (priority 2004, dated 2012).

Test [1] can be described thus: Heparin binding on Heparin-Sepharose. As to conditions: eluted with NaCl (0.5, 1, 2M), Western blot or MALDI-TOF MS. As to the method: Intact recombinant protein (10 μg, EBNA-cell expressed) diluted in PBS was passed over Heparin-Sepharose (Amersham Pharmacia) (1 ml), washed with 20 volumes of PBS and eluted with 2 M NaCl (6×1 ml). Eluted material was precipitated with ethanol, separated by SDS-PAGE (10%) and visualized by western blot (CHAD ab α-80, Larsson et al). The peptide CKFPTKRSKKAGRH (SEQ ID No:7) was diluted in PBS and passed over heparin-sepharose (100 μl), the column was washed with 20 volumes PBS and bound material eluted with 0.5, 1, and 2M NaCl (3 column volumes of each).
Recombinant chondroadherin (10 or 100 μg) expressed in EBNA-cells was passed over Heparin-Sepharose-column (Pharmacia). The column was washed and eluted with 2M NaCl in PBS. Eluted material was separated on SDS-PAGE (10%) and detected by western blot using a chondroadherin antibody (see FIG. 4). The band at 36 kDa represents chondroadherin ant the band at 72 kDa represents a dimer of chondroadherin.
The candidate peptide CKFPTKRSKKAGRH (SEQ ID No: 7) was synthesized. The ability of the peptide to bind heparin was confirmed on heparin-sepharose, where material eluted with 0.5, 1 and 2M NaCl was identified by MALDI-TOF MS (data not shown).

Another test relates to K9 cells. Kind of test: Adhesion of K9 cells to selected matrix constituents (FIG. 1). Type of test: cell-based, human. Particulars: 5 μg/ml coating, 1 hour at 37° C., 50,000 cells/well seeded. As to the method: Human cells (K9) originating from a human chondrosarcoma were a kind gift from Drs. Sven Inerot and Anders Lindahl, The Salgrenska University Hospital Gothenburg, Sweden. The K9 cells were cultured in Dulbeccos Modified Eagle Medium: Nutrient Mixture F12 (DMEM/F12 1:1) with GLUTAMAX I, supplemented with 10% fetal calf serum, 25 μg/ml ascorbic acid, 50 IU of penicillin and 50 μg/ml streptomycin (Life Technologies, Inc.). A different human cells line (K105) originating from a human chondrosarcoma was a kind gift from Dr. Sven Inerot, The Salgrenska University Hospital, Gothenburg, Sweden. […]
To test cell binding, the chondrosarcoma cells or bovine chondrocytes were suspended in PBS containing 0.1% BSA, 25 U/ml collagenase and added to the wells (50,000/well), in the absence or presence of various peptide pools or the synthetic peptides (200, 100, 50, 25, 12.5 μg/ml). Non-adherent cells were removed after 1 hour and adhesion was determined by measuring lysosomal N-acetylglucosaminidase (12). […]
48-well tissue culture dishes were coated with 5 μg/ml collagen type II, tissue extracted bovine chondroadherin, human chondroadherin expressed in EBNA cells and human chondroadherin expressed in E. coli and blocked for non-specific binding with BSA. […] Nonadherent cells were removed by washing and adhesion was determined by analyzing lysosomal N-acetylglucosaminidase. […]

The target of the next test is T1, Syndecan 3 (Homo sapiens, UniProt O75056).
T1 construct: endogenous in cells; host or cells: human chondrosarcoma cells K105 (membrane fraction, surface-biotinylated)
T1 sequence (O75056 whole entry): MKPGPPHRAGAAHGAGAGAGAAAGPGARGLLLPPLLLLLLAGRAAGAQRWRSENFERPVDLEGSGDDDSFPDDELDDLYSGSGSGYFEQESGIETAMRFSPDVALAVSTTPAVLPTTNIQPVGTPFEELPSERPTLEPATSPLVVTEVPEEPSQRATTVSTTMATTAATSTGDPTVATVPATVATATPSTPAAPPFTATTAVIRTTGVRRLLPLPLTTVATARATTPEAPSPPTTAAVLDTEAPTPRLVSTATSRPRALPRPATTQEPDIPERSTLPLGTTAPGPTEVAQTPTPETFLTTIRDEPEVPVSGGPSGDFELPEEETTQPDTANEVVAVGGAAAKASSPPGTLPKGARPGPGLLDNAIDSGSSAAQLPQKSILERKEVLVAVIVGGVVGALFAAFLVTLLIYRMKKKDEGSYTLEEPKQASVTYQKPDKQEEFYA
Nature of the test: Affinity purification of K105 membrane proteoglycans on chondroadherin-agarose and immunoprecipitation with pan-syndecan antibody. Type of test: binding. As to conditions: eluted with 0.5 M NaCl, after heparitinase. As to the method:
Recombinant chondroadherin (2.5 mg expressed in EBNA-cells per ml agarose) was coupled to Mini-Leak agarose (Kem En Tec, A/S, Denmark) according to the manufacturer's instructions. The control agarose was treated in the same manner but with no protein added.
Human chondrosarcoma cells (k105) suspended in PBS were incubated with EZ-link sulfo NHS-LC biotin (Pierce Chemical Co) at a final concentration of 1 mg/ml for 1 hour at room temperature. The cells were incubated for 10 minutes in 0.1 M glycine in PBS to block free biotin, washed three times in PBS and then resuspended and homogenized in 10 mM KCl, 20 mM Tris/HCl, pH 7.4, 1 mM EDTA (1 ml/10^6 cells). Nuclei were removed by centrifugation at 1,500 g for 5 minutes, 0.15 M NaCl was added to the supernatant and the membrane fraction was collected by centrifugation at 50,000 g for 30 minutes. The pellet was suspended in 2 ml 8 M UREA, 2% […] in TBS pH 7.4 supplemented with COMPLET® protease inhibitor (Roche). The lysate was cleared by centrifugation at 14,000 g for 20 min. […]
Cell surface proteins on human chondrosarcoma cells (K105) were biotin labeled and affinity purified on chondroadherin-agarose in urea. Bound material was eluted with 0.5 M NaCl, separated on SDS-PAGE (4-12%) and detected by Western blot before or after heparitinase and chondroitinase ABC treatment. […]

B1: Chondroadherin (protein)
chain: ACPQNCHCHSDLQHVICDKVGLQKIPKVSEKTKLLNLQRNNFPVLAANSFRAMPNLVSLHLQHCQIREVAAGAFRGLKQLIYLYLSHNDIRVLRAGAFDDLTELTYLYLDHNKVTELPRGLLSPLVNLFILQLNNNKIRELRAGRFQGAKDLRWLYLSENALSSLQPGALDDVENLAKFHVDRNQLSSYPSAALSKLRVVEELKLSHNPLKSIPDNAFQSFGRYLETLWLDNTNLEKFSDGAFLGVTTLKHVHLENNRLNQLPSNFPFDSLETLALTNNPWKCTCQLRGLRRWLEAKASRPDATCASPAKFKGQHIRDTDAFRSCKFPTKRSKKAGRH
modifications: homo sapiens
notes: leucine-rich cartilage matrix protein, 338 amino acids; human recombinant, expressed in EBNA cells or E. coli
B1: the binding to heparin-sepharose entry in test [1] was “bind to the heparin-sepharose”; in test [1] (listed as Recombinant chondroadherin), “bind heparin”. Also, the “adhesion of K9 cells to coated substrate (number of cells)” value in the test on K9 cells is “virtually identical to that of the bacterially expressed”. Further, the “K105 membrane component bound to chondroadherin” value with Syndecan 3 is reported as “Syndecan 3”.
